Reference: patent publication US20260210971A1 (Pfizer, published 2026)

Key:
[1] = target: T1, recombinant soluble human TL1A (human, UniProt O95150 71-251); experiment: cell-based or functional assay
T1 sequence: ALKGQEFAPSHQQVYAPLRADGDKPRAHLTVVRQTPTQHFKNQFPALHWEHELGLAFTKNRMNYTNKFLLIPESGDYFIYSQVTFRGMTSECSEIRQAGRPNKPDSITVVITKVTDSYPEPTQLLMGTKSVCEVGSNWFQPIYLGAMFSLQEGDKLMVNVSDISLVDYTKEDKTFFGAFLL

[2] = target: T2, endogenous TL1A of stimulated human peripheral blood (human, UniProt O95150 72-251, limits assumed); experiment: cell-based or functional assay
T2 sequence (looked up): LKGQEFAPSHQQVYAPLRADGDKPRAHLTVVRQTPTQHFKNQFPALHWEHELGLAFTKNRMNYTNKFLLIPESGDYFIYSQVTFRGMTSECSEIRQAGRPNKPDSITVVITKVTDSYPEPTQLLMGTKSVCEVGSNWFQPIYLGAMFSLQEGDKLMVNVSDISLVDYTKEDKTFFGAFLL

[3] = target: T3, endogenous TL1A of stimulated cynomolgus monkey peripheral blood (cynomolgus monkey, UniProt G7PRK8 72-251); experiment: cell-based or functional assay
T3 sequence: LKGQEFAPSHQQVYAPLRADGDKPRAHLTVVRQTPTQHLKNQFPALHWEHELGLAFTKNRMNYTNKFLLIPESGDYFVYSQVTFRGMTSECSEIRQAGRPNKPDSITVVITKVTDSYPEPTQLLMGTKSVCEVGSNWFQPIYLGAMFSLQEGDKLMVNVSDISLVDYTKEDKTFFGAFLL

[4] = target: T1, recombinant soluble human TL1A; experiment: cell-based or functional assay; remark: listed apart in the source
[5] = target: T2, endogenous TL1A of stimulated human …; experiment: cell-based or functional assay; remark: listed apart in the source
[6] = target: human TNFSF10 (TRAIL) (human, UniProt P50591 114-281); experiment: plate ELISA, cytokine coated
Chain of human TNFSF10 (TRAIL) (P50591 114-281 limits assumed): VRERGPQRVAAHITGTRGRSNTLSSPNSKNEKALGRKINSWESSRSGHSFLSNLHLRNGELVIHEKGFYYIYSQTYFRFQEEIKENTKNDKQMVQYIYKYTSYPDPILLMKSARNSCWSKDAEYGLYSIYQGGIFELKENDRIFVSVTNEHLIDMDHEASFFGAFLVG
Procedure: (§1) The first 6 rows of each plate were coated with the test article cytokine, and the last two rows were coated with TL1A as a positive control. Rows 1 and 2 were duplicate rows where the test article cytokine was tested for binding to increasing concentrations of its corresponding anti-cytokine positive control antibody. […] The experiment for each cytokine was repeated three times.
(§2) Plates were incubated overnight at 4° C. After washing the plates three times (3×) with 300 μL PBST using a plate washer (model ELx405; BioTek), plates were blocked by incubating for 1 hour at room temperature with 300 μL of blocking buffer (PBST+0.5% BSA) in each well. […] Plates were then washed 5 times with PBST using the plate washer.

[7] = target: human TNFSF14 (LIGHT) (human, UniProt O43557 74-240, limits assumed); experiment: plate ELISA, cytokine coated
Chain of human TNFSF14 (LIGHT) (O43557 74-240 limits assumed): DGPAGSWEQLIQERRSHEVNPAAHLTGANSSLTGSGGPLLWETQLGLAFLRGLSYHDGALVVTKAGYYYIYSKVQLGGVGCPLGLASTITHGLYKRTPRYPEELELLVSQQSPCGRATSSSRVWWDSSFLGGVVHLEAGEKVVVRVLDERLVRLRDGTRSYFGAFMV
Procedure: as §1, §2

[8] = target: T4, human TNF-β (human, UniProt P01374 35-205); experiment: plate ELISA, cytokine coated
T4 construct: The source sentence prints 'Human TNF-from Peprotech'
T4 sequence (looked up): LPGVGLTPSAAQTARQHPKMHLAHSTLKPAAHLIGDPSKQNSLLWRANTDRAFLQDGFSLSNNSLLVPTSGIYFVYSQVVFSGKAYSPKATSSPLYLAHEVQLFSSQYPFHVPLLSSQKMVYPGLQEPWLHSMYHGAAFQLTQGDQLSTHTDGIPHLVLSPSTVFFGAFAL
Procedure: as §1, §2

[9] = target: T5, human TNF-α (human, UniProt P01375 77-233); experiment: plate ELISA, cytokine coated
T5 construct: also called TNF alpha
T5 sequence (P01375 77-233 limits assumed): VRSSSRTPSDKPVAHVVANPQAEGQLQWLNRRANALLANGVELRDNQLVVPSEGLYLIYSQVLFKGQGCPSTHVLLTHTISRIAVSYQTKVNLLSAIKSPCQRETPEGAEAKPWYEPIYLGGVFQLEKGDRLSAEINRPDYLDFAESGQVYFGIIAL
Procedure: as §1, §2

[10] = target: T6, human Lymphotoxin α2-β1 (human, UniProt P01374 35-205; Q06643 49-244, limits assumed); experiment: plate ELISA, cytokine coated
T6 construct: Copies read from the name α2-β1; also called Lymβ 1
T6 sequence (looked up) 1: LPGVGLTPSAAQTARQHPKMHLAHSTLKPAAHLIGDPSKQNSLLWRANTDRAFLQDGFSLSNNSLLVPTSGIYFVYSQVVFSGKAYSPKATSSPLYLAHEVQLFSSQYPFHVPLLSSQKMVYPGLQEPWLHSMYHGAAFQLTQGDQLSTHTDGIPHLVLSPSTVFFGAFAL
T6 sequence (looked up) 2: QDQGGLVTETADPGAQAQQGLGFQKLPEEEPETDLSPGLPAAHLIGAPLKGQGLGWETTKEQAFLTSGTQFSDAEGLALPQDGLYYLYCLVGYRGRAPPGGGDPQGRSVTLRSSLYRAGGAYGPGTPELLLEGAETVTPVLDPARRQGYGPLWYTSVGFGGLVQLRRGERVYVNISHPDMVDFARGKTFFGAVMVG
Procedure: as §1, §2

[11] = target: T7, human Lymphotoxin α1-β2 (human, UniProt P01374 35-205; Q06643 49-244, limits assumed); experiment: plate ELISA, cytokine coated
T7 construct: Copies read from the name α1-β2; also called Lymβ 2
T7 sequence (looked up) 1: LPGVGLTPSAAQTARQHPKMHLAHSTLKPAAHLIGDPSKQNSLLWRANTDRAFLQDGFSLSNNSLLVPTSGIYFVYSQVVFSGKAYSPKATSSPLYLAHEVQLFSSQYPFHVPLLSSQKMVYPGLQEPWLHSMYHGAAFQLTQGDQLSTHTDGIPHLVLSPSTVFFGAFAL
T7 sequence (looked up) 2: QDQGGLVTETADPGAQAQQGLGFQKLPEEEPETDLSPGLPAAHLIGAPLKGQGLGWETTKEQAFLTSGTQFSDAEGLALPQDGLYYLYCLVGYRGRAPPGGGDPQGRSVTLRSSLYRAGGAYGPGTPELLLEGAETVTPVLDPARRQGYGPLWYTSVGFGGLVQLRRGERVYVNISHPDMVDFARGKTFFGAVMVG
Procedure: as §1, §2

[12] = target: T1, recombinant soluble human TL1A; experiment: plate ELISA, TL1A coated, antibody titrated
[13] = target: T8, recombinant soluble rat TL1A (rat, UniProt Q8K3Y7 76-252); experiment: SPR, IgG captured on anti-hIgG, TL1A injected
T8 construct: also called rat rsTL1A
T8 sequence: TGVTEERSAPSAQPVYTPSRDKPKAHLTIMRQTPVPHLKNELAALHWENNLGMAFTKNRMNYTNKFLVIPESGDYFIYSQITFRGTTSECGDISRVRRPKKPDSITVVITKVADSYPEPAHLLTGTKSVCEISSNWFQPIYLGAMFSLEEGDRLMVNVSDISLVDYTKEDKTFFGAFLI
Source text: The antibodies were captured via directly immobilized anti-human IgG (GE Healthcare) onto a carboxymethylated dextran sensor chip surface (CM5) using a Biacore T100 or T200 instrument. Anti-human IgG was immobilized through amine coupling to densities of approximately 4,000-13,000 response units (RU). […] At the end of each cycle, the entire anti-hIgG surface was regenerated by a 30-second pulse of 3M MgCl₂ followed by two consecutive 15-second pulses of PBS-NET. […] All injections were performed at 25° C. at a collection rate of 10 Hz. All sensorgrams were double referenced by using both a control surface and buffer injections. Rate constants were determined by fitting the data to a 1:1 model in Biacore T100, T200 evaluation software v1.0, or BIAevaluation software v4.1.1 and the equation KD=Kd/kₐ.
At the highest cytokine concentrations, the dissociation phase was sometimes extended to 60 minutes to achieve at least a 5% decrease in binding signal.

[14] = target: T1, recombinant soluble human TL1A; experiment: plate ELISA, TL1A coated, antibody titrated; plate of TNF α
Procedure: as §1, §2

[15] = target: T1, recombinant soluble human TL1A; experiment: plate ELISA, TL1A coated, antibody titrated; plate of TNF β
Procedure: as §1, §2

[16] = target: T1, recombinant soluble human TL1A; experiment: plate ELISA, TL1A coated, antibody titrated; plate of Lymβ 2
Procedure: as §1, §2

[17] = target: T1, recombinant soluble human TL1A; experiment: SPR, IgG captured on anti-hIgG, TL1A injected; off rate too slow to measure
[18] = target: T1, recombinant soluble human TL1A; experiment: plate ELISA, TL1A coated, antibody titrated; plate of TNFSF6; plate of TNFSF6
Procedure: as §1, §2

[19] = target: T1, recombinant soluble human TL1A; experiment: plate ELISA, TL1A coated at 1 µg/mL, detection with anti-human IgG HRP
Procedure: as §1, §2

[20] = target: T3, endogenous TL1A of stimulated …; experiment: MSD ligand-binding assay of 1D1 1.31-free soluble TL1A in plasma of cynomolgus whole blood stimulated 24 h with immune complex + IL-12/IL-18 (representative experiment)
Procedure: Controls included stimulation without antibody as well as no, or single stimulation controls (only IC or only IL-12/IL-18) in triplicate. After 24 hours of culture at 37° C., 200 μL of 5% bovine serum albumin in PBS were added and mixed well with the 100 μL of blood cultures to dilute plasma (dilution factor: 3). […] IFNγ was measured using the MSD human IFNγ kit (Catalog No. K151AEB-1) following the manufacturer's instructions. […] The following day, plates were washed three times with 150 μL per well of 0.1% Tween 20 in PBS, followed with 150 μL per well of blocking solution (5% bovine serum albumin in PBS), then the plates were incubated at room temperature for 1 hour with orbital shaking (1500 rpm). […] Plates were incubated at room temperature for 2 hours with orbital shaking (1500 rpm) followed by the same plate wash protocol mentioned above. TL1A standard curves were generated using recombinant cynomolgus monkey soluble TL1A. Plates were read following the manufacturer's procedure, standard curve and plasma concentration of the cytokine were calculated using the MSD software per manufacturer's instructions.

B1: 1D1 1.31 (antibody, human IgG1, kappa, V domains shown)
VH: QVQLVQSGAEVKKPGASVKVSCKASGYDFTYYGISWVRQAPGQGLEWMGWISTYNGNTHYARMLQGRVTMTTDTSTRTAYMELRSLRSDDTAVYYCARENYYGSGAYRGGMDVWGQGTTVTVSS
VL: EIVLTQSPATLSLSPGERATLSCRASQSVSSYLAWYQQKPGQAPRLLIYDASNRATGIPARFSGSGSGTDFTLTISSLEPEDFAVYYCQQRSNWPWTFGQGTKVEIKR
notes: Full length human IgG1 with effector function-null mutations in the Fc, produced in CHO cells; Used biotinylated for staining of monocytes
B1 was tested, and the “inhibition of NFκB activation by 150 pM TL1A in TF-1-NFκB-luciferase cells, IC50” value [1] was 95 pM, the “inhibition of caspase activation by 87 pM TL1A in TF-1 cells, IC50” value [1] was 69 pM and the “inhibition of IFNγ secretion in stimulated human whole blood, IC50” value [2] was 0.277 nM. For the same binder, the “inhibition of IFNγ secretion in stimulated cynomolgus whole blood, IC50” value [3] was 0.036 nM, the “Caspase Assay, average IC50” value [4] was 0.106 nM and the “NFkB Assay, average IC50” value [4] was 0.15 nM. The “HWB Assay, average IC50” value [5] was 0.00167 nM, the binding result [6] was “no binding (tested: 25 µg/mL highest antibody concentration)” and the binding result [7] was “no binding (tested: 25 µg/mL highest antibody concentration)”. B1: no binding (tested: 25 µg/mL highest antibody concentration) [8]; no binding (tested: 25 µg/mL highest antibody concentration) [9]; no binding (tested: 25 µg/mL highest antibody concentration) [10]. The binding result [11] was “no binding (tested: 25 µg/mL highest antibody concentration)”, the EC50 [12] was 8400 ng/mL and the Kd [13] was 4.86 nM. It also gave a koff [13] of 0.0026 s⁻¹, a kon [13] of 540000 M⁻¹ s⁻¹ and a t1/2 [13] of 4.38 min. It also gave an EC50 [14] of 0.0082 ng/mL, an EC50 [15] of 0.0023 ng/mL and an EC50 [16] of 0.0058 ng/mL. The Kd [17] was less than 0.1 nM, the EC50 [18] was 0.0085 ng/mL and the “EC50 (read off the curve)” value [19] was roughly 8 ng/mL. It also gave an IC50 [20] of 0.000169 nM.
